Blank lines part the entries; values can stand above or below the binder they belong to.
What was measured:
[1] = target: T1, hFcγRIIIaV-His6 (human-derived Fcγ receptor IIIa, Val) (human, UniProt P08637 17-208, limits assumed); assay: SPR (Biacore T100), hFcγRIIIaV-His6 immobilized on CM5, antibody as analyte at 250 µg/ml
T1 construct: also called FcγRIIIa (Val); not shown: His6 tag
Procedure: The FcγRIIIa binding was assessed by the procedure described below. […] The amounts of bound antibody were compared. […] FcγRIIIa was immobilized onto the sensor chip CM5 (Biacore) by the amine coupling method. […] The running buffer used was HBS-EP+, and the flow rate was 5 μl/min. The sample concentration was adjusted to 250 μg/ml using HBS-EP+. The analysis included two steps: two minutes of association phase where 10 μl of an antibody solution was injected and the subsequent four minutes of dissociation phase where the injection was switched with HBS-EP+. After the dissociation phase, the sensor chip was regenerated by injecting 20 μl of 5 mM hydrochloric acid. The association, dissociation, and regeneration constitute one analysis cycle. Various antibody solutions were injected to obtain sensorgrams. […] 1999 August; 29(8):2613-24.

[2] = target: T2, human-derived Fcγ receptor IIb (Recombinant Human FcRIIB/C, R&D systems) (human, UniProt P31994 46-217, limits assumed); assay: SPR (Biacore T100), FcγRIIb immobilized on CM5, antibody as analyte at 200 µg/ml, 25 C
T2 construct: Bought recombinant protein, construct not described; also called FcγRIIb
T2 sequence (looked up): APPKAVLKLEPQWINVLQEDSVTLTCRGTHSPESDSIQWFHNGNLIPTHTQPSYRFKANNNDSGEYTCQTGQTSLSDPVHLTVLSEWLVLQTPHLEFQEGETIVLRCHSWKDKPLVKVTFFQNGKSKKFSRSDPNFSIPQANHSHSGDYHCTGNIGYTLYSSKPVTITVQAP
Procedure: The FcγRIIb binding was assessed by the procedure described below. […] The amounts of bound antibody were compared. […] FcγRIIb was immobilized onto the sensor chip CM5 (Biacore) by the amine coupling method. The final amount of immobilized FcγRIIb was about 4,300 RU. Then, the running buffer was injected until the baseline was stabilized. The measurement was carried out after the baseline was stabilized. […] The running buffer used was HBS-EP+ (10 mM HEPES, 0.15M NaCl, 3 mM EDTA, 0.05% v/v Surfactant P20), and the flow rate was 20 μl/min. The measurement temperature was 25° C. The concentration of each IgG or modified form thereof was adjusted to 200 μg/ml. 20 μl of an analyte was injected and allowed to interact with the immobilized FcγRIIb. After interaction, the analyte was dissociated from FcγRIIb and the sensor chip was regenerated by injecting 200 μl of the running buffer. […] This series of injection was repeated twice.

[3] = target: T3, soluble GPC3 core polypeptide (human, UniProt P51654 25-563); assay: competitive ELISA on plate-immobilized soluble GPC3 core polypeptide; competitor: biotinylated H0L0 antibody at 0.3 µg/mL
T3 construct: also called soluble GPC3 core protein; soluble glypican-3 core
Procedure: 100 μl of the polypeptide solution was added to each well of a 96-well plate. […] After 200 μl of blocking buffer was added, the plate was blocked at 4° C. overnight or longer. […] The plate was incubated at room temperature for one hour, and then washed five times with washing buffer using SkanWasher 400 (Molecular Devices). Goat anti-streptavidin alkaline phosphatase (Zymed) was 20,000-times diluted with substrate buffer and added to the plate at 100 μl/well. The plate was incubated at room temperature for one hour, and then washed five times with washing buffer using SkanWasher 400. The concentration of phosphatase substrate (Sigma) was adjusted to 1 mg/ml using the substrate buffer, and the solution was added to the plate at 100 μl/well. The plate was incubated for one hour.

[4] = target: T4, recombinant human IL-6R sR (R&D systems) (human, UniProt P08887 20-358); assay: SPR (Biacore T100), antibody captured on Protein A, rhIL-6sR as analyte, 25 C
T4 construct: Bought soluble receptor; also called rhIL-6sR; rhIL-s6R
T4 sequence (looked up): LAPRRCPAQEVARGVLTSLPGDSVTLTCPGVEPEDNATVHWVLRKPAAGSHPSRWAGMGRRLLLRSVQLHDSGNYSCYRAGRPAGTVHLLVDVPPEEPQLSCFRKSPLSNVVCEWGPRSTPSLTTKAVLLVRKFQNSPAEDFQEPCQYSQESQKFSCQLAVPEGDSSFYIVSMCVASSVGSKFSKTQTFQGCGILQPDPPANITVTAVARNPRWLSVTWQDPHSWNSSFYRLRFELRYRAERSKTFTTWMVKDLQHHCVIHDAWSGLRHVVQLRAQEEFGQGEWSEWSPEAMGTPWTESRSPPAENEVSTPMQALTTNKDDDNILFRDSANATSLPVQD
Procedure: The antigen-antibody interaction was measured by immobilizing 1,800 to 2,600 RU (resonance units) of rec-Protein A (Zymed) (hereinafter “Protein A”) onto a sensor chip, binding various antibodies onto the chip, and then flowing the antigen over the chip as an analyte. Various concentrations of recombinant human IL-6R sR (R&D systems) (hereinafter “rhIL-6sR”) were used as the antigen. All measurements were carried out at 25° C. The kinetic parameters, association rate constant kₐ (1/Ms) and dissociation rate constant kd (1/s) were calculated from the sensorgrams obtained by measurement. Then, KD (M) was determined based on the rate constants. The respective parameters were determined using Biacore T100 Evaluation Software (Biacore).

[5] = target: T5, SR344 (N-terminal 1st to 344th amino acids of soluble human IL-6R) (human, UniProt P08887 20-344, limits assumed); assay: cell-based or functional assay
T5 sequence (looked up): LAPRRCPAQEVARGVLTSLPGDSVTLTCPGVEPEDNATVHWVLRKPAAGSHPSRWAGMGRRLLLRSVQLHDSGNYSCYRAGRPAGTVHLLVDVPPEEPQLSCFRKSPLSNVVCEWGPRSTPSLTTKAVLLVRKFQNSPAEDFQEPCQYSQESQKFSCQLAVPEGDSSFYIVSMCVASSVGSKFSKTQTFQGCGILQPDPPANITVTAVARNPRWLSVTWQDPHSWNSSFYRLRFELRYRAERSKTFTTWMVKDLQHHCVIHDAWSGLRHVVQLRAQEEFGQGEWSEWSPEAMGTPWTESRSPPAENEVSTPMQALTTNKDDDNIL

[6] = target: T5, SR344 (N-terminal 1st to 344th amino …); assay: SPR (Biacore T100), Protein A/G capture, SR344 at 0, 0.36 and 1.4 µg/ml, 15 min dissociation, 37 C
Procedure: This measurement was carried out under the same conditions described in Example 2. The running buffer used was HBS-EP+, and the flow rate was 20 μl/min. Each antibody was prepared so that about 100 RU of the antibody was bound to Protein A/G. SR344 was prepared at 0, 0.065, 0.131, and 0.261 μg/ml using HBS-EP+ and used as an analyte. In the first step of the measurement, the antibody in solution was bound to Protein A/G, and the analyte solution was allowed to interact therewith. After three minutes of interaction, the solution was switched to HBS-EP+, and the dissociation phase was monitored for 10 or 15 minutes. After measurement of the dissociation phase, the sensor chip was regenerated by washing with 10 μl of 10 mM glycine-HCl (pH 1.5). The association, dissociation, and regeneration constitute one analysis cycle. Each antibody was measured according to this cycle.
The Tm of purified H96/PF1L-IgG1 was determined by the method described in Example 5. The affinity measurement was carried out under essentially the same conditions used in Example 5. Note that the concentration of SR344 was adjusted to 0, 0.36, and 1.4 μg/ml, and the dissociation phase was monitored for 15 minutes.

T1 sequence (P08637 17-208 F176V limits assumed): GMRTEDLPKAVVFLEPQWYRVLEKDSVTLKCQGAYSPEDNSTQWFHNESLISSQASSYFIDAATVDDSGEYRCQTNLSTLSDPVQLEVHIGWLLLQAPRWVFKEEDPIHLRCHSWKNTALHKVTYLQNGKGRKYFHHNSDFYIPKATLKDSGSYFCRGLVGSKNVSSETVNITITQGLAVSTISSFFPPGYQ
T3 sequence (P51654 other isoform, or with tags, fused parts or gaps limits assumed): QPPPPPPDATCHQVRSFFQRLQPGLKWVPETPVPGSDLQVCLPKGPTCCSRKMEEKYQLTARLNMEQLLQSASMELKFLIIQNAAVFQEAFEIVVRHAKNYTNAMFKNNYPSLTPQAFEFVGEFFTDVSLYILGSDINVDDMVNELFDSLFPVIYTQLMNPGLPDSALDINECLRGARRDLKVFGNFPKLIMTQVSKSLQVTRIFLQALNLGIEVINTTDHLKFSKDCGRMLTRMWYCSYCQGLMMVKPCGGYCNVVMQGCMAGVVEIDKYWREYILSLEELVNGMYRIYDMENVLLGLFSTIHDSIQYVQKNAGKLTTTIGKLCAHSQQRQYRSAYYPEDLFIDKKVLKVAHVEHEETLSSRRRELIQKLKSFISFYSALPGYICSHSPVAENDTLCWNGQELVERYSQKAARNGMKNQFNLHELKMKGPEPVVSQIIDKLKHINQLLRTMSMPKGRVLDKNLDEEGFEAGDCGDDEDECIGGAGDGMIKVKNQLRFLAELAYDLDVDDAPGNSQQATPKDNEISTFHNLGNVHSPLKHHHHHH

- binding result [1]: binds
- binding result [2]: binds
B1: WT-M17ΔGK (antibody, human IgG1, kappa)
heavy: QVQLQESGPGLVRPSQTLSLTCTVSGYSITSDHAWSWVRQPPGRGLEWIGYISYSGITTYNPSLKSRVTMLRDTSKNQFSLRLSSVTAADTAVYYCARSLARTTAMDYWGQGSLVTVSSASTKGPSVFPLAPSSKSTSGGTAALGCLVKDYFPEPVTVSWNSGALTSGVHTFPAVLQSSGLYSLSSVVTVPSSSLGTQTYICNVNHKPSNTKVDKKVEPKSCDKTHTCPPCPAPPVAGPSVFLFPPKPKDTLMISRTPEVTCVVVDVSHEDPEVKFNWYVDGVEVHNAKTKPREEQYNSTYRVVSVLTVLHQDWLNGKEYKCKVSNKGLPSSIEKTISKAKGQPREPQVYTLPPSRDELTKNQVSLTCLVKGFYPSDIAVEWESNGQPENNYKTTPPVLDSDGSFFLYSKLTVDKSRWQQGNVFSCSVMHEALHNHYTQKSLSLSP
light: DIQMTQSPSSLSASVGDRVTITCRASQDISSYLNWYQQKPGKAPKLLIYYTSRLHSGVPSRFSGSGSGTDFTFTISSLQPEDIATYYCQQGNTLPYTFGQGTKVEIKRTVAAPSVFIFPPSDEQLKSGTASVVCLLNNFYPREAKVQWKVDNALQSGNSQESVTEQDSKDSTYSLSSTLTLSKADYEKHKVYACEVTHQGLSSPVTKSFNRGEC

- binding result [3]: binds
B2: antibody H15L4 (antibody, V domains shown)
VH: QVQLVQSGAEVKKPGASVKVSCKASGYTFTDYEMHWIRQPPGQGLEWIGAIDPKTGDTAYSQKFKGRVTLTADKSTSTAYMELSSLTSEDTAVYYCTRFYSYTYWGQGTLVTVSS
VL: DIVMTQSPLSLPVTPGEPASISCRSSQSLVHSNRNTYLHWYQQKPGQAPRLLIYKVSNRFSGVPDRFSGSGSGTDFTLKISRVEAEDVGVYYCSQNTHVPPTFGQGTKLEIK
notes: Point mutant of the anti-glypican 3 antibody H0L0

- binding result [3]: binds
B3: Hspd1.8Lspd1.6 antibody (antibody, V domains shown)
VH: QVQLVQSGAEVKKPGASVTVSCKASGYTFTDYEMHWIRQPPGEGLEWIGAIDPKTGDTAYSQSFQDRVTLTADKSTSTAYMELSSLTSEDTAVYYCTRFYSYTYWGQGTLVTVSS
VL: DIVMTQSPLSLPVTPGEPASISCRASESLVHSNRNTYLHWYQQKPGQAPRLLIYKVSNRFSGVPDRFSGSGSGTDFTLTISSLQAEDVGVYYCSQNTHVPPTFGQGTKLEIK
notes: Anti-glypican 3, lowered isoelectric point; also called Hd1.8Ld1.6

- Kd [4]: 0.012 nM
- fold higher affinity than WT [4]: ~50 fold
- koff [4]: 2.8e-05 s⁻¹
- kon [4]: 2.3e+06 M⁻¹ s⁻¹
- BaF3/gp130 neutralizing activity, 100% inhibitory concentration against WT [5]: ~50 fold
B4: RD-6 (antibody, V domains shown)
VH: QVQLQESGPGLVRPSQTLSLTCTVSGYSITSDHAWSWVRQPPGRGLEWIGYISYSGITTYNPSLKSRVTMLRDTSKNQFSLRLSSVTAADTAVYYCARLLARATAMDYWGQGSLVTVSS
VL: DIQMTQSPSSLSASVGDRVTITCRASQDISSYLNWYQQKPGKAPKLLIYYTSRLHSGVPSRFSGSGSGTDFTFTISSLQPEDIATYYCQQGNTLPYTFGQGTKVEIK
notes: VH assembled from the FR and CDR entries of humanized PM-1

- Kd [6]: 0.039 nM
- koff [6]: 4.8e-05 s⁻¹
- kon [6]: 1.2e+06 M⁻¹ s⁻¹
B5: H96/PF1L-IgG1 (antibody, V domains shown)
VH: QVQLQESGPGLVKPSETLSLTCAVSGYSISDDHAWSWVRQPPGEGLEWIGYISYSGITNYNPSLKGRVTISRDNSKNTLYLQMNSLRAEDTAVYYCARVLARITAMDYWGEGTLVTVSS
VL: DIQMTQSPSSLSASVGDSVTITCQASQDISSYLNWYQQKPGKAPELLIYYGSELHSGVPSRFSGSGSGTDFTFTISSLEAEDAATYYCGQGNRLPYTFGQGTKVEIE

- binding result [1]: binds
- binding result [2]: binds
B6: WT-M11ΔGK (antibody)
heavy: QVQLQESGPGLVRPSQTLSLTCTVSGYSITSDHAWSWVRQPPGRGLEWIGYISYSGITTYNPSLKSRVTMLRDTSKNQFSLRLSSVTAADTAVYYCARSLARTTAMDYWGQGSLVTVSSASTKGPSVFPLAPSSKSTSGGTAALGCLVKDYFPEPVTVSWNSGALTSGVHTFPAVLQSSGLYSLSSVVTVPSSSLGTKTYTCNVDHKPSNTKVDKTVERKSCVECPPCPAPPVAGPSVFLFPPKPKDTLMISRTPEVTCVVVDVSQEDPEVQFNWYVDGVEVHNAKTKPREEQFNSTYRVVSVLTVLHQDWLNGKEYKCKVSNKGLPSSIEKTISKAKGQPREPQVYTLPPSQEEMTKNQVSLTCLVKGFYPSDIAVEWESNGQPENNYKTTPPVLDSDGSFFLYSKLTVDKSRWQEGNVFSCSVMHEALHNHYTQKSLSLSL
light: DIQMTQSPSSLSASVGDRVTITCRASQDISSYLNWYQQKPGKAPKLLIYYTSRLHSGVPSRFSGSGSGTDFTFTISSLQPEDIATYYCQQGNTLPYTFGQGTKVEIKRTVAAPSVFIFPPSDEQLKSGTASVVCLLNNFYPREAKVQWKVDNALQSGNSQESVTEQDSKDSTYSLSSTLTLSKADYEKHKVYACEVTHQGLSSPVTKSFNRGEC

- binding result [1]: binds
- binding result [2]: binds
B7: WT-IgG2 (antibody)
heavy: QVQLQESGPGLVRPSQTLSLTCTVSGYSITSDHAWSWVRQPPGRGLEWIGYISYSGITTYNPSLKSRVTMLRDTSKNQFSLRLSSVTAADTAVYYCARSLARTTAMDYWGQGSLVTVSSASTKGPSVFPLAPCSRSTSESTAALGCLVKDYFPEPVTVSWNSGALTSGVHTFPAVLQSSGLYSLSSVVTVPSSNFGTQTYTCNVDHKPSNTKVDKTVERKCCVECPPCPAPPVAGPSVFLFPPKPKDTLMISRTPEVTCVVVDVSHEDPEVQFNWYVDGVEVHNAKTKPREEQFNSTFRVVSVLTVVHQDWLNGKEYKCKVSNKGLPAPIEKTISKTKGQPREPQVYTLPPSREEMTKNQVSLTCLVKGFYPSDIAVEWESNGQPENNYKTTPPMLDSDGSFFLYSKLTVDKSRWQQGNVFSCSVMHEALHNHYTQKSLSLSPGK
light: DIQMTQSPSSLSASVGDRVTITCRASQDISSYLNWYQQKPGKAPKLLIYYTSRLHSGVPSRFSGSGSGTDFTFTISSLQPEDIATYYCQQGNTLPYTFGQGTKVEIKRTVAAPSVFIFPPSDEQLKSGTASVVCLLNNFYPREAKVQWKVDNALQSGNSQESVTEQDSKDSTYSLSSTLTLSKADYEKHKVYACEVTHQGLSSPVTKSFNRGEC

Source: US20150284465A1 (Chugai, published 2015)
